The target in data set [1] is T1, Ets-1 p42 (human, UniProt P14921-2 1-354).
T1 sequence: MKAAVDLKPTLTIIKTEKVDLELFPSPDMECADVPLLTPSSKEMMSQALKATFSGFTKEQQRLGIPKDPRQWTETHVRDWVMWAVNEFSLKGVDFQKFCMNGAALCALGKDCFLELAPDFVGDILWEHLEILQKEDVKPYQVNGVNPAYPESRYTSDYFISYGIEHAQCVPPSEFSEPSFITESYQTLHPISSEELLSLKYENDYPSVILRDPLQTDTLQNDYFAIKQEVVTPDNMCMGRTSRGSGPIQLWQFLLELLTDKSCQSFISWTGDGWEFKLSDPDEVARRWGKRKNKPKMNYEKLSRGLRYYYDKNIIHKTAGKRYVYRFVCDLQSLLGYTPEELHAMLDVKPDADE
In words: not stated.

Another data set has as its target T2, p51ΔN331 (human, UniProt P14921 331-441).
T2 sequence: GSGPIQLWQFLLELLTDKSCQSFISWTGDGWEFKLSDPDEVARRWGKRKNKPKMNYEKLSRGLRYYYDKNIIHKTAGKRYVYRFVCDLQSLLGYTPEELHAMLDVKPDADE
The data set is described as follows: EMSA.

The target in the next data set is T3, p51ΔC415 (human, UniProt P14921 1-415).
T3 sequence: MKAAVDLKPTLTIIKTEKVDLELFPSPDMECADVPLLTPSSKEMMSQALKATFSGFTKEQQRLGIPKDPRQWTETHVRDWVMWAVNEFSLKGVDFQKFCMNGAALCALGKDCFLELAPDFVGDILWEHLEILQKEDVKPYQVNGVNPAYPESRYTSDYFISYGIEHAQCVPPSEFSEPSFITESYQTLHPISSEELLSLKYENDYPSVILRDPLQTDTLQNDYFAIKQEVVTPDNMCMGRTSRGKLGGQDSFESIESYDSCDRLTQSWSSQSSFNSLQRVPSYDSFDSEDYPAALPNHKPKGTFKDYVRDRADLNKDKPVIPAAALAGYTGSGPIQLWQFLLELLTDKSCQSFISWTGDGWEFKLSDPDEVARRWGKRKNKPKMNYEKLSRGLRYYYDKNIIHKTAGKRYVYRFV
In words: EMSA.

The target of a further data set is T4, p51(301-415) (human, UniProt P14921 301-415).
T4 sequence: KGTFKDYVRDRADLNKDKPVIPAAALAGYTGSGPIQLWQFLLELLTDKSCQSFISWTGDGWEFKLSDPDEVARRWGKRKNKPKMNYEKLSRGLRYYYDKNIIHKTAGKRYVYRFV
The data set is described as follows: EMSA.

A further data set concerns the target T5, p42ΔC328 (human, UniProt P14921-2 1-328).
T5 sequence: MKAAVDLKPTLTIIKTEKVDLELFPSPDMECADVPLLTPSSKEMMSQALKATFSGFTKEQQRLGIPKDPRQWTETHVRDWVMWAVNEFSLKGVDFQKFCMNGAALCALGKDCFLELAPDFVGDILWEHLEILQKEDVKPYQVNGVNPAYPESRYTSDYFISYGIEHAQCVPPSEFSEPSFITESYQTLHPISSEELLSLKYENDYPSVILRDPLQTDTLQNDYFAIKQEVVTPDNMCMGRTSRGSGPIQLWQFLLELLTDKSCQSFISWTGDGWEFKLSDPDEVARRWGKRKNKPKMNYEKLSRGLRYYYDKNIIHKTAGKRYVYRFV
In words: EMSA.

A further data set has as its target T6, Ets-1 DBD (human, UniProt P14921 331-415).
T6 sequence: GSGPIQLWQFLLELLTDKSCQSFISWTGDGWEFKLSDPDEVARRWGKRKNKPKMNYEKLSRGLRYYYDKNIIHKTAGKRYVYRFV
The data set is described as follows: EMSA.

The target of data set [2] is T1, Ets-1 p42. The data set is described as follows: EMSA.

Where a chain is given by its changes, count along the chain named.

B1: WT (dsDNA)
DNA 1: ACCAAGACAGGAAGCACTTCCTGGAGATTA
DNA 2: TAATCTCCAGGAAGTGCTTCCTGTCTTGGT
The molecule B1 yielded a Kd in the data set with Ets-1 p42 [1] of about 20 nM.

B2: WT+4 (dsDNA)
DNA 1: ACCAAGACAGGAAGCACGCACTTCCTGGAGATTA
DNA 2: TAATCTCCAGGAAGTGCGTGCTTCCTGTCTTGGT
On to B2, for which the binding result with p51ΔN331, with p51ΔC415, in the data set with p51(301-415), with p42ΔC328, in the data set with Ets-1 DBD and in the data set with Ets-1 p42 [2] was “binds” in each case.

B3: M2 (dsDNA)
DNA 1: B1 DNA 1 with C20T, C21T
DNA 2: B1 DNA 2 with G10A, G11A
For the molecule B3, the dissociation constant Kd with Ets-1 p42 [1] was about 20 nM.

B4: M1 (dsDNA)
DNA 1: B1 DNA 1 with G10A, G11A
DNA 2: B1 DNA 2 with C20T, C21T
Turning to B4, the Kd in the data set with Ets-1 p42 [1] is about 20 nM.

B5: IP (dsDNA)
DNA 1: ACCAAGAGCTTCCTGCAGGAAGTGAGATTA
DNA 2: TAATCTCACTTCCTGCAGGAAGCTCTTGGT
B5: the binding result in the data set with Ets-1 p42 [2] is “binds”.

The values are drawn from article PMC2715226.
